From the supplement of paper PMC9112550, “Optimization of the antimicrobial peptide Bac7 by deep mutational scanning” (BMC Biology, 2022)

System: Escherichia coli TOP10
Assay: shrunken log2 fold change of peptide-encoding DNA abundance (4.5 h post-induction vs induction); higher = less antimicrobial activity (less host growth inhibition)
Conditions: time post-induction: 4.5 h; library: site-saturation at positions 5, 18, 19, 20
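Further: peptides expressed intracellularly from a pBAD plasmid library in pooled LB shake-flask culture, induced with 0.3% L-arabinose, DNA abundance read by NGS, three biological replicates, DESeq2 with apeglm shrinkage.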

RRIRYRPPRLPRPRPRPFNSPRP
shrunken log2 fold change: -0.169

RRIRYRPPRLPRPRPRPFPKPRP
shrunken log2 fold change: -0.28

RRIRYRPPRLPRPRPRPFQQPRP
shrunken log2 fold change: -0.0176

RRIRYRPPRLPRPRPRPFRAPRP
shrunken log2 fold change: -0.142

RRIRYRPPRLPRPRPRPFSTPRP
shrunken log2 fold change: -0.0961

RRIRYRPPRLPRPRPRPFWFPRP
shrunken log2 fold change: -0.264

RRIRYRPPRLPRPRPRPGAEPRP
shrunken log2 fold change: 0.227

RRIRYRPPRLPRPRPRPGDRPRP
shrunken log2 fold change: 0.196

RRIRYRPPRLPRPRPRPGEIPRP
shrunken log2 fold change: -0.0481

RRIRYRPPRLPRPRPRPGEPPRP
shrunken log2 fold change: -0.0235

RRIRYRPPRLPRPRPRPGFCPRP
shrunken log2 fold change: -0.266

RRIRYRPPRLPRPRPRPGFLPRP
shrunken log2 fold change: -0.454

RRIRYRPPRLPRPRPRPGFPPRP
shrunken log2 fold change: -6.24e-05

RRIRYRPPRLPRPRPRPGGEPRP
shrunken log2 fold change: 0.173

RRIRYRPPRLPRPRPRPGICPRP
shrunken log2 fold change: -0.179

RRIRYRPPRLPRPRPRPGIHPRP
shrunken log2 fold change: -0.467

RRIRYRPPRLPRPRPRPGILPRP
shrunken log2 fold change: -0.0404

RRIRYRPPRLPRPRPRPGMMPRP
shrunken log2 fold change: -0.426

RRIRYRPPRLPRPRPRPGMRPRP
shrunken log2 fold change: 0.561

RRIRYRPPRLPRPRPRPGMTPRP
shrunken log2 fold change: 0.0238

RRIRYRPPRLPRPRPRPGNHPRP
shrunken log2 fold change: -0.064

RRIRYRPPRLPRPRPRPGPIPRP
shrunken log2 fold change: -0.0295

RRIRYRPPRLPRPRPRPGPNPRP
shrunken log2 fold change: 0.205

RRIRYRPPRLPRPRPRPGQIPRP
shrunken log2 fold change: -0.0348

RRIRYRPPRLPRPRPRPGQPPRP
shrunken log2 fold change: 0.0516

RRIRYRPPRLPRPRPRPGQTPRP
shrunken log2 fold change: -0.0773

RRIRYRPPRLPRPRPRPGQWPRP
shrunken log2 fold change: 0.136

RRIRYRPPRLPRPRPRPGRAPRP
shrunken log2 fold change: 0.17

RRIRYRPPRLPRPRPRPGRQPRP
shrunken log2 fold change: -0.031

RRIRYRPPRLPRPRPRPGRVPRP
shrunken log2 fold change: -0.106

RRIRYRPPRLPRPRPRPGVLPRP
shrunken log2 fold change: -0.916

RRIRYRPPRLPRPRPRPGWNPRP
shrunken log2 fold change: -0.182

RRIRYRPPRLPRPRPRPGWVPRP
shrunken log2 fold change: 0.0444

RRIRYRPPRLPRPRPRPGYIPRP
shrunken log2 fold change: -0.0964

RRIRYRPPRLPRPRPRPGYSPRP
shrunken log2 fold change: -0.874

RRIRYRPPRLPRPRPRPHACPRP
shrunken log2 fold change: 0.0039

RRIRYRPPRLPRPRPRPHCLPRP
shrunken log2 fold change: -0.0757

RRIRYRPPRLPRPRPRPHCSPRP
shrunken log2 fold change: -0.239

RRIRYRPPRLPRPRPRPHCYPRP
shrunken log2 fold change: -0.426

RRIRYRPPRLPRPRPRPHEHPRP
shrunken log2 fold change: -0.0681

RRIRYRPPRLPRPRPRPHFTPRP
shrunken log2 fold change: -0.817

RRIRYRPPRLPRPRPRPHHAPRP
shrunken log2 fold change: -0.00186

RRIRYRPPRLPRPRPRPHHRPRP
shrunken log2 fold change: -0.306

RRIRYRPPRLPRPRPRPHIIPRP
shrunken log2 fold change: -0.501

RRIRYRPPRLPRPRPRPHINPRP
shrunken log2 fold change: -0.806

RRIRYRPPRLPRPRPRPHIVPRP
shrunken log2 fold change: -0.102

RRIRYRPPRLPRPRPRPHKEPRP
shrunken log2 fold change: 0.103

RRIRYRPPRLPRPRPRPHLKPRP
shrunken log2 fold change: -0.452

RRIRYRPPRLPRPRPRPHLLPRP
shrunken log2 fold change: -0.515

RRIRYRPPRLPRPRPRPHMCPRP
shrunken log2 fold change: -0.0704

RRIRYRPPRLPRPRPRPHMFPRP
shrunken log2 fold change: 0.0171

RRIRYRPPRLPRPRPRPHMVPRP
shrunken log2 fold change: -0.126

RRIRYRPPRLPRPRPRPHPEPRP
shrunken log2 fold change: 0.037

RRIRYRPPRLPRPRPRPHQFPRP
shrunken log2 fold change: -0.984

RRIRYRPPRLPRPRPRPHRAPRP
shrunken log2 fold change: -0.213

RRIRYRPPRLPRPRPRPHRFPRP
shrunken log2 fold change: 0.0207

RRIRYRPPRLPRPRPRPHVAPRP
shrunken log2 fold change: -0.312

RRIRYRPPRLPRPRPRPHWAPRP
shrunken log2 fold change: -0.24

RRIRYRPPRLPRPRPRPHWEPRP
shrunken log2 fold change: -0.276

RRIRYRPPRLPRPRPRPHWIPRP
shrunken log2 fold change: -0.398

RRIRYRPPRLPRPRPRPIAMPRP
shrunken log2 fold change: -0.322

RRIRYRPPRLPRPRPRPIDRPRP
shrunken log2 fold change: -0.017

RRIRYRPPRLPRPRPRPIEEPRP
shrunken log2 fold change: 0.00911

RRIRYRPPRLPRPRPRPIEYPRP
shrunken log2 fold change: -0.0912

RRIRYRPPRLPRPRPRPIFNPRP
shrunken log2 fold change: -0.89

RRIRYRPPRLPRPRPRPIGAPRP
shrunken log2 fold change: -0.419

RRIRYRPPRLPRPRPRPIKEPRP
shrunken log2 fold change: 0.0062

RRIRYRPPRLPRPRPRPIKSPRP
shrunken log2 fold change: -0.616

RRIRYRPPRLPRPRPRPIKTPRP
shrunken log2 fold change: -0.154

RRIRYRPPRLPRPRPRPILIPRP
shrunken log2 fold change: -0.256

RRIRYRPPRLPRPRPRPIMCPRP
shrunken log2 fold change: -0.197

RRIRYRPPRLPRPRPRPIMRPRP
shrunken log2 fold change: 0.0675

RRIRYRPPRLPRPRPRPIMTPRP
shrunken log2 fold change: -0.991

RRIRYRPPRLPRPRPRPINVPRP
shrunken log2 fold change: -0.208

RRIRYRPPRLPRPRPRPINYPRP
shrunken log2 fold change: -1.12

RRIRYRPPRLPRPRPRPIPKPRP
shrunken log2 fold change: 0.141

RRIRYRPPRLPRPRPRPIPWPRP
shrunken log2 fold change: -0.545

RRIRYRPPRLPRPRPRPISPPRP
shrunken log2 fold change: 0.0589

RRIRYRPPRLPRPRPRPIWDPRP
shrunken log2 fold change: -0.13

RRIRYRPPRLPRPRPRPIYQPRP
shrunken log2 fold change: -0.614

RRIRYRPPRLPRPRPRPKATPRP
shrunken log2 fold change: -0.00674

RRIRYRPPRLPRPRPRPKCVPRP
shrunken log2 fold change: 0.0122

RRIRYRPPRLPRPRPRPKEAPRP
shrunken log2 fold change: -0.0135

RRIRYRPPRLPRPRPRPKEQPRP
shrunken log2 fold change: 0.00489

RRIRYRPPRLPRPRPRPKFGPRP
shrunken log2 fold change: -0.000463

RRIRYRPPRLPRPRPRPKGDPRP
shrunken log2 fold change: -0.0902

RRIRYRPPRLPRPRPRPKHMPRP
shrunken log2 fold change: -0.991

RRIRYRPPRLPRPRPRPKKAPRP
shrunken log2 fold change: -0.0344

RRIRYRPPRLPRPRPRPKKHPRP
shrunken log2 fold change: -0.646

RRIRYRPPRLPRPRPRPKLGPRP
shrunken log2 fold change: -0.0974

RRIRYRPPRLPRPRPRPKMFPRP
shrunken log2 fold change: -0.845

RRIRYRPPRLPRPRPRPKNKPRP
shrunken log2 fold change: -0.444

RRIRYRPPRLPRPRPRPKNQPRP
shrunken log2 fold change: -0.777

RRIRYRPPRLPRPRPRPKPCPRP
shrunken log2 fold change: -0.0304

RRIRYRPPRLPRPRPRPKPHPRP
shrunken log2 fold change: -0.1

RRIRYRPPRLPRPRPRPKPTPRP
shrunken log2 fold change: 0.278

RRIRYRPPRLPRPRPRPKQGPRP
shrunken log2 fold change: 0.0737

RRIRYRPPRLPRPRPRPKRDPRP
shrunken log2 fold change: -0.0103

RRIRYRPPRLPRPRPRPKSMPRP
shrunken log2 fold change: -0.584

RRIRYRPPRLPRPRPRPKTWPRP
shrunken log2 fold change: -0.132

RRIRYRPPRLPRPRPRPKVIPRP
shrunken log2 fold change: -0.102

RRIRYRPPRLPRPRPRPKVSPRP
shrunken log2 fold change: -0.0576

RRIRYRPPRLPRPRPRPKWIPRP
shrunken log2 fold change: -0.863

RRIRYRPPRLPRPRPRPKWNPRP
shrunken log2 fold change: -0.483

RRIRYRPPRLPRPRPRPKYEPRP
shrunken log2 fold change: -0.177

RRIRYRPPRLPRPRPRPLDDPRP
shrunken log2 fold change: -0.115

RRIRYRPPRLPRPRPRPLDYPRP
shrunken log2 fold change: -1.11

RRIRYRPPRLPRPRPRPLEPPRP
shrunken log2 fold change: -0.124

RRIRYRPPRLPRPRPRPLFHPRP
shrunken log2 fold change: -0.818

RRIRYRPPRLPRPRPRPLGMPRP
shrunken log2 fold change: -0.807

RRIRYRPPRLPRPRPRPLGRPRP
shrunken log2 fold change: -0.191

RRIRYRPPRLPRPRPRPLGSPRP
shrunken log2 fold change: -0.651

RRIRYRPPRLPRPRPRPLHCPRP
shrunken log2 fold change: -0.724

RRIRYRPPRLPRPRPRPLIVPRP
shrunken log2 fold change: -0.895

RRIRYRPPRLPRPRPRPLKNPRP
shrunken log2 fold change: -0.337

RRIRYRPPRLPRPRPRPLKSPRP
shrunken log2 fold change: -0.365

RRIRYRPPRLPRPRPRPLLKPRP
shrunken log2 fold change: -0.634

RRIRYRPPRLPRPRPRPLLNPRP
shrunken log2 fold change: -0.19

RRIRYRPPRLPRPRPRPLLSPRP
shrunken log2 fold change: -0.186

RRIRYRPPRLPRPRPRPLLWPRP
shrunken log2 fold change: -0.246

RRIRYRPPRLPRPRPRPLMMPRP
shrunken log2 fold change: -0.692

RRIRYRPPRLPRPRPRPLPWPRP
shrunken log2 fold change: -0.132

RRIRYRPPRLPRPRPRPLPYPRP
shrunken log2 fold change: -0.156

RRIRYRPPRLPRPRPRPLRGPRP
shrunken log2 fold change: 0.561

RRIRYRPPRLPRPRPRPLRRPRP
shrunken log2 fold change: 0.17

RRIRYRPPRLPRPRPRPLSIPRP
shrunken log2 fold change: -0.129

RRIRYRPPRLPRPRPRPLSSPRP
shrunken log2 fold change: -0.214

RRIRYRPPRLPRPRPRPLTLPRP
shrunken log2 fold change: -0.267

RRIRYRPPRLPRPRPRPLVKPRP
shrunken log2 fold change: -1.45

RRIRYRPPRLPRPRPRPLVLPRP
shrunken log2 fold change: -0.206

RRIRYRPPRLPRPRPRPLVMPRP
shrunken log2 fold change: -0.372

RRIRYRPPRLPRPRPRPLWMPRP
shrunken log2 fold change: -0.63

RRIRYRPPRLPRPRPRPLYHPRP
shrunken log2 fold change: -1.11

RRIRYRPPRLPRPRPRPLYIPRP
shrunken log2 fold change: -0.999

RRIRYRPPRLPRPRPRPLYNPRP
shrunken log2 fold change: -1.11

RRIRYRPPRLPRPRPRPLYTPRP
shrunken log2 fold change: -0.795

RRIRYRPPRLPRPRPRPMCCPRP
shrunken log2 fold change: -3.16

RRIRYRPPRLPRPRPRPMDMPRP
shrunken log2 fold change: -0.00926

RRIRYRPPRLPRPRPRPMDYPRP
shrunken log2 fold change: -0.218

RRIRYRPPRLPRPRPRPMGSPRP
shrunken log2 fold change: -0.106

RRIRYRPPRLPRPRPRPMHHPRP
shrunken log2 fold change: -0.596

RRIRYRPPRLPRPRPRPMKFPRP
shrunken log2 fold change: -0.0276

RRIRYRPPRLPRPRPRPMNKPRP
shrunken log2 fold change: -0.187

RRIRYRPPRLPRPRPRPMNWPRP
shrunken log2 fold change: -0.463

RRIRYRPPRLPRPRPRPMPSPRP
shrunken log2 fold change: 0.0101

RRIRYRPPRLPRPRPRPMQHPRP
shrunken log2 fold change: -0.17

RRIRYRPPRLPRPRPRPMRGPRP
shrunken log2 fold change: 0.156

RRIRYRPPRLPRPRPRPMRMPRP
shrunken log2 fold change: 0.126

RRIRYRPPRLPRPRPRPMSLPRP
shrunken log2 fold change: 0.0155

RRIRYRPPRLPRPRPRPMSNPRP
shrunken log2 fold change: -0.709
